Values joined by “and” are separate entries in the source; they are usually repeats but may differ in a detail not shown here. Identical values can stand only once. Bridges are numbered along the chain shown (N, C = ends). [ ]: non-standard residue; d: D form. The star is where a group is joined. 5‑TAMRA = CN(C)c1ccc2c(-c3ccc(C(=O)*)cc3C(=O)[O-])c3ccc(N(C)C)cc3[o+]c2c1; NMeW = CN[C@@H](Cc1c[nH]c2ccccc12)C(=O)O; NMeY = CN[C@@H](Cc1ccc(O)cc1)C(=O)O; Palmitoyl = CCCCCCCCCCCCCCCC(=O)*; R8 = C=CCCCCCC[C@@](C)(N)C(=O)O; Cba = N[C@@H](CC1CCC1)C(=O)O; hLeu = CC(C)CC[C@H](N)C(=O)O; S5 = C=CCCC[C@](C)(N)C(=O)O; Decac = not defined here; Nle = CCCC[C@H](N)C(=O)O; βAla = NCCC(=O)O
Columns and labels:
MDM2 (In-house, 41 kD) [1] = molecular target: MDM2 (In-house, 41 kD) (UniProt Q00987); assay: competitive fluorescence polarization on MDM2 against FAM-labeled linear peptide; grade, scale in paragraph 462
MDMX (In-house, 40 kD) [2] = molecular target: T1, MDMX (In-house, 40 kD) (UniProt O15151); assay: competitive fluorescence polarization on MDMX against FAM-labeled linear peptide; grade, scale in paragraph 462
T1 sequence (looked up): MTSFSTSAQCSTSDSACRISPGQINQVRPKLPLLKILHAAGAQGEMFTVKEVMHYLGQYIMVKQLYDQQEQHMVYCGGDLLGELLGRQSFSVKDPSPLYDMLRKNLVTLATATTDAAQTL

MDMX (In-house, 40 kD) [3] = molecular target: T2, MDMX (In-house, 40 kD) (UniProt O15151 1-120, limits assumed); assay: competitive FP vs FAM labeled linear peptide; column IC50 (MDMX); + = >1000 nM by the table's scale
T2 construct: Only 'MDMX (In-house, 40 kD)' is said of the protein in the FP assays; also called MDM4
T2 sequence (looked up): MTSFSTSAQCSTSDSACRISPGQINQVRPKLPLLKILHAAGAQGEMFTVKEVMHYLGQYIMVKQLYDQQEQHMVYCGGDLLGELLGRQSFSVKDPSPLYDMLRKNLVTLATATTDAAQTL

MDMX (In-house, 40 kD) [4] = molecular target: T2, MDMX (In-house, 40 kD); assay: competitive FP vs FAM labeled linear peptide; column Ki (MDMX); + = >1000 nM by the table's scale
MDMX (In-house, 40 kD) [5] = molecular target: T3, MDMX (In-house, 40 kD) (UniProt O15151 1-120, limits assumed); assay: IC50 (MDMX) grade; competitive FP vs FAM-labeled linear peptide; + = >1000 nM
T3 construct: The construct used is unknown; also called MDM4
T3 sequence (looked up): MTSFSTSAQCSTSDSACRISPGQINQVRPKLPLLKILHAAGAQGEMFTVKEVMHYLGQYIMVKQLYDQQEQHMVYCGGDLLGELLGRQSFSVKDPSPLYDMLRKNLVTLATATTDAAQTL

MDM2 (In-house, 41 kD) [6] = molecular target: T4, MDM2 (In-house, 41 kD) (UniProt Q00987 1-125, limits assumed); assay: competitive fluorescence polarization on MDM2 against FAM-labeled linear peptide; grade, scale in paragraph 462
T4 construct: Only 'In-house, 41 kD' is said of the protein used in the fluorescence polarization assays; also called HDM2

MDMX (In-house, 40 kD) [7] = molecular target: T5, MDMX (In-house, 40 kD) (UniProt O15151 1-120, limits assumed); assay: competitive fluorescence polarization on MDMX against FAM-labeled linear peptide; grade, scale in paragraph 462
T5 construct: Only 'In-house, 40 kD' is said of the protein used in the fluorescence polarization assays; also called MDM4
T5 sequence (looked up): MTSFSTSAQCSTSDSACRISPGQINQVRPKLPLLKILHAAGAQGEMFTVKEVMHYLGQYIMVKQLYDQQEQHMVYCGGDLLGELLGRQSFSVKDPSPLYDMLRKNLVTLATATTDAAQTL

MDMX (In-house, 40 kD) [8] = molecular target: T6, MDMX (In-house, 40 kD) (UniProt O15151 1-120, limits assumed); assay: FP competition on MDMX vs FAM-labeled linear peptide; graded IC50, + = >1000 nM
T6 construct: Construct not described beyond 'In-house, 40 kD'; also called MDM4
T6 sequence (looked up): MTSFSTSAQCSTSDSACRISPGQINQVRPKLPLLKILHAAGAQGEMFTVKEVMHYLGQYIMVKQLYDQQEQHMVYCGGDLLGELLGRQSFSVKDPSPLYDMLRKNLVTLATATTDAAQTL

MDMX (In-house, 40 kD) [9] = molecular target: T6, MDMX (In-house, 40 kD); assay: FP competition on MDMX vs FAM-labeled linear peptide; graded Ki, + = >1000 nM
MDMX (In-house, 40 kD) [10] = molecular target: T3, MDMX (In-house, 40 kD); assay: Ki (MDMX) grade; competitive FP vs FAM-labeled linear peptide; + = >1000 nM

T4 sequence (Q00987 1-125 limits assumed): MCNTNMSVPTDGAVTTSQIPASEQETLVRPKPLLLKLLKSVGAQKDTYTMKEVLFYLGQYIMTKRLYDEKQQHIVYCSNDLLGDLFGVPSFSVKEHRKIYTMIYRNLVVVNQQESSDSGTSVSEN
Chain of MDM2 (In-house, 41 kD) (UniProt Q00987) (Q00987 1-125 limits assumed): as above

| IC50 (MDM2 (In-house, 41 kD) [1]) | IC50 (MDMX (In-house, 40 kD) [2]) [nM] | also measured | Molecule |
| --- | --- | --- | --- |
| < 10 nM | > 1000 |  | SP755, Ac-tawyanf4CF3e$r511r$r5a-NH2 (peptide) |
| > 100 nM and < 1000 nM | > 1000 |  | SP752, Ac-t$r5wya$r5f4CF3e1d1r-NH2 (peptide) |
| > 100 nM and < 1000 nM | > 1000 |  | SP754, Ac-tawya$r5f4CF3ek$r51r-NH2 (peptide) |
| > 10 nM and < 100 nM | > 1000 |  | SP758, Ac-tawya$s8f4CF3e1d1r$r5a-NH2 (peptide) |
| > 10 nM and < 100 nM | > 1000 |  | SP756, Ac-t$s8wyanf4CF3e$r511r-NH2 (peptide) |
| > 10 nM and < 100 nM | > 1000 |  | SP753, Ac-tawy$r5nf4CF3e$r511r-NH2 (peptide) |
| < 10 nM | > 1000 |  | SP757, Ac-tawy$s8nf4CF3ek11$r5a-NH2 (peptide) |
|  |  | IC50 (MDMX (In-house, 40 kD) [3]): > 1000 nM; Ki (MDMX (In-house, 40 kD) [4]): > 1000 nM | Ac-LTF[R8]A[NMeY]WAQL[S5]AA[Nle]A-NH2 (staple 4-11; not fully specified, Stapled peptidomimetic macrocycle, single isomer iso2; also called Ac-LTF$r8ANmYWAQL$AANleA-NH2) [SP384] |
|  |  | IC50 (MDMX (In-house, 40 kD) [5]): > 1000 nM | Ac-LTF[R8]AYWAQ[hLeu][S5]AA[Nle]AA-NH2 (staple 4-11, Peptidomimetic macrocycle (stapled p53-derived peptide)) [SP323] |
|  |  | Ki (MDM2 (In-house, 41 kD) [6]): ≤ 10 nM | {5‑TAMRA}-[βAla]LTF[R8]EYWAQ[Cba][S5]SAA-NH2 (staple 5-12; SMILES CC(C)C[C@H](NC(=O)CCNC(=O)c1ccc(-c2c3ccc(N(C)C)cc3[o+]c3cc(N(C)C)ccc23)c(C(=O)[O-])c1)C(=O)N[C@H](C(=O)N[C@@H](Cc1ccccc1)C(=O)N[C@]1(C)CCCCCCC=CCCC[C@@](C)(C(=O)N[C@@H](CO)C(=O)N[C@@H](C)C(=O)N[C@@H](C)C(N)=O)NC(=O)[C@H](CC2CCC2)NC(=O)[C@H](CCC(N)=O)NC(=O)[C@H](C)NC(=O)[C@H](Cc2c[nH]c3ccccc23)NC(=O)[C@H](Cc2ccc(O)cc2)NC(=O)[C@H](CCC(=O)O)NC1=O)[C@@H](C)O, stapled peptidomimetic macrocycle with fluorescent label) [SP686, 5-TAMRA-BaLTF$r8EYWAQCba$SAA-NH2] |
|  |  | Ki (MDM2 (In-house, 41 kD) [6]): ≤ 10 nM; Ki (MDMX (In-house, 40 kD) [7]): ≤ 10 nM | Ac-LTF[R8]HYWAQ[Cba][S5]SAA-NH2 (staple 4-11; also: single isomer iso2, stapled peptidomimetic macrocycle, isomer iso2) [SP712, Ac-LTF$r8HYWAQCba$SAA-NH2 (iso2)] |
|  |  | Ki (MDM2 (In-house, 41 kD) [6]): ≤ 10 nM; Ki (MDMX (In-house, 40 kD) [7]): ≤ 10 nM | Ac-LTF[R8]SYWAQ[Cba][S5]SAA-NH2 (staple 4-11; also: single isomer iso2, stapled peptidomimetic macrocycle, isomer iso2) [SP713, Ac-LTF$r8SYWAQCba$SAA-NH2 (iso2)] |
|  |  | IC50 (MDMX (In-house, 40 kD) [8]): > 1000 nM; Ki (MDMX (In-house, 40 kD) [9]): > 1000 nM | Palmitoyl-ETF[R8]EYWAQ[Cba][S5]SAA-NH2 (staple 4-11) [SP250, Pam-ETF$r8EYWAQCba$SAA-NH2] |
|  |  | Ki (MDMX (In-house, 40 kD) [10]): > 1000 nM; IC50 (MDMX (In-house, 40 kD) [5]): > 1000 nM | Decac-LTF[R8]EYWAQ[hLeu][S5]SAA-NH2 (staple 4-11; reading uncertain, Peptidomimetic macrocycle (stapled p53-derived peptide)) [SP282] |
|  |  | IC50 (MDMX (In-house, 40 kD) [3]): > 1000 nM; Ki (MDMX (In-house, 40 kD) [4]): > 1000 nM | Ac-LTF[R8]AY[NMeW]AQL[S5]AA[Nle]A-NH2 (staple 4-11; not fully specified, Stapled peptidomimetic macrocycle, single isomer iso2; also called Ac-LTF$r8AYNmWAQL$AANleA-NH2) [SP386] |

Source: patent publication US20170281720A1 (published 2017)
